Assays:
[1] = target: AKAP150, mRFP-tagged (rat) (rat) (UniProt P24587); assay: FRAP
[2] = target: AKAP79^FAAF, mRFP-tagged (human) (human) (UniProt P24588); assay: FRAP
[3] = target: AKAP79, mRFP-tagged, full length (human) (human) (UniProt P24588); assay: FRAP
[4] = target: AKAP79^FAAF, GFP-tagged, full length (human) (human) (UniProt P24588); assay: co-IP
[5] = target: AKAP79^AF, GFP-tagged, full length (human) (human) (UniProt P24588); assay: co-IP
[6] = target: AKAP79^FA, GFP-tagged, full length (human) (human) (UniProt P24588); assay: co-IP

Sequence of UniProt P24587 (P24587 whole entry): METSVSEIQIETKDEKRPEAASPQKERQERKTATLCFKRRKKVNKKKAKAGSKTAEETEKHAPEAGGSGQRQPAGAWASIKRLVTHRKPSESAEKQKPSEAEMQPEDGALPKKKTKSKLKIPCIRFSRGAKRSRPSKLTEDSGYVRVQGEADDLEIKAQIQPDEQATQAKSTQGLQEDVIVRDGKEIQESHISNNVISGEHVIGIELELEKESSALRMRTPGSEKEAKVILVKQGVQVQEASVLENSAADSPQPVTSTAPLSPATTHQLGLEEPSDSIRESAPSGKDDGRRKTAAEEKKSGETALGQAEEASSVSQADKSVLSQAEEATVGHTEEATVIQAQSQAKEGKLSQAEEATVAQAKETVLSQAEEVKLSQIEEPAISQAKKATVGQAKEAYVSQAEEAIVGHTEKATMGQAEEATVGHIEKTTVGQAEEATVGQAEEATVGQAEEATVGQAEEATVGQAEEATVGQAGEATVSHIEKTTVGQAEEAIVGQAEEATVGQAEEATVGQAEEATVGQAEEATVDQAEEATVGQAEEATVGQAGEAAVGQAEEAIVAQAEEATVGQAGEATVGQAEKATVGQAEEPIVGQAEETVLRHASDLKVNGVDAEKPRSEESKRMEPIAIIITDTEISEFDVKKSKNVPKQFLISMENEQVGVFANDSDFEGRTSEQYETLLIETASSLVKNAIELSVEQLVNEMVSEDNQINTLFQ

FRAP recovery half-time [1] | FRAP recovery rate constant [1] | FRAP recovery half-time [2] | FRAP recovery rate constant [2] | FRAP recovery half-time [3] | FRAP recovery rate constant [3] | fold RI band intensity over controls [4] | percent decrease of RII binding against WT AKAP79 [5] | percent decrease of RII binding against WT AKAP79 [6] | percent decrease of RII binding against WT AKAP79 [4] | Substance
12.3 s | 0.057 s⁻¹ | 11.4 s | 0.062 s⁻¹ | 14.4 s | 0.049 s⁻¹ |  |  |  |  | PKA type II regulatory subunit alpha, iRFP-tagged (RII-iRFP) (from UniProt P13861 1-404) (natural protein)
 |  | 20.5 s | 0.034 s⁻¹ | 8.74 s | 0.079 s⁻¹ |  |  |  |  | PKA type I regulatory subunit alpha, iRFP-tagged (RI-iRFP) (from UniProt P10644 1-381) (natural protein)
 |  |  |  |  |  | 3.55 fold |  |  |  | PKA type I regulatory subunit alpha (RIα), endogenous (from UniProt P10644 1-381) (natural protein)
 |  |  |  |  |  |  | 22% | 45% | 45% | PKA type II regulatory subunit alpha (RIIα), endogenous (from UniProt P13861 1-404) (natural protein)
